Reference: the DeepSol protein solubility set

Test: soluble on expression in E. coli; label from the status in PepcDB or PDB records

Row | Sequence | soluble on expression in E. coli
1 | MGSDKIHHHHHHMGASAISQQISKLEQELSIRLLQRNAFGVTPTPAGLAFLKHSQLILRQVNFAIDAAHSARLSGHVSLGFPPTITALIGIPLMKLMSERYPDIRLEIVETLSGNLIQSINSRQLDIAIIFTNEIDKQWSIQPLVREQMYLMARKEVLEKYGLSECIKSGIIQSQQIGDIPLVLPRQRHSLRKLLEHKIGQLNVVYEIDGLHLLMDSLIHLDLASVRPGSACLQEYKHKLQLLKVVDPEVERINYLVSLAEEELSPAALAAKSAIKACVKELIQNQIWPCSEIIL | not soluble
2 | MENPPAEPFFLDASPGKRFCLYHSPAGDTPLNQVFIYLHPFAEEMNKSRRMAALQAKAFAAMGFGVLQIDLYGCGDSAGDFGEATWEIWKNDVEFAYQWLIQQGFTSVHFWGLRLGALLALDYAGKAETGSAKFILWQPVINGKSFLTQFLRLRLVNKLLSDDSDKAQNVHLREELRAGKSLEIAGYTLSPAMAAAIDELKLGQLVVGNSEIYWFEITPEAGRGLPPAGAAVVEAWNQSGVYPEVTLIPGLPFWATQEISECPALLAATAKLFAGIQP | not soluble
3 | MGSDKIHHHHHHMALLTAETFRLQFNNKRRLRRPYYPRKALLCYQLTPQNGSTPTRGYFENKKKCHAEICFINEIKSMGLDETQCYQVTCYLTWSPCSSCAWELVDFIKAHDHLNLGIFASRLYYHWCKPQQKGLRLLCGSQVPVEVMGFPEFADCWENFVDHEKPLSFNPYKMLEELDKNSRAIKRRLERIKS | not soluble
4 | MGSHHHHHHDITSLYKKAGSAAAVLEENLYFGGSFTMDMAADIASDHFISRRVDIGRITLNVREKGSGPLMLFFHGITSNSAVFEPLMIRLSDRFTTIAVDQRGHGLSDKPETGYEANDYADDIAGLIRTLARGHAILVGHSLGARNSVTAAAKYPDLVRSVVAIDFTPYIETEALDALEARVNAGSQLFEDIKAVEAYLAGRYPNIPADAIRIRAESGYQPVDGGLRPLASSAAMAQTARGLRSDLVPAYRDVTKPVLIVRGESSKLVSAAALAKTSRLRPDLPVVVVPGADHYVNEVSPEITLKAITNFIDA | soluble
5 | MSLHTAQKTRKGEHKWAAVVGLEIHAQISSNSKLFSGSQVRFSAPPNSLVSFFDASLPGTLPVLNRRCVEAAVMTGLALNCHINKKSLFDRKHYFYADLPAGYQITQQRLPIAVNGSLIYGVCAGKKQSQVIPKTVRIKQIQLEQDSGKSLHDNLRSQTLIDLNRAGVGLLEVVLEPDMSCGEEAATAVRELQLILQALGTSQANMAEGQLRVDANISVHHPGEPLGVRTEVKNLNSIRFLAKAIDYEIQRQINELENGGEILNETRSFHHKLGCTMSMRDKEGKQDYRFMPEPNLPPLVLYDATSLPAGADPQQVINIDQIRETLPELPSVTREKLVQQYGMLLEHSFTLLNEVGLLEFFQNVIKETRAEPKKVTSWVLNTFLGYLKQQNLAVSESPVTPSALAELLDLLDSRTISSSAAKQVFEELWKREGKTPGQIVSEKQLELMQDQGALEQLCHSVMEAHPQVVMDVKNRNPRAINKLIGLVRKATQSRADPVMIKEILEKKLSLEGHHHHHH | soluble
6 | GSHMRPQGATVSLWETVQKWREYRRQCQRSLTEDPPPATDLFCNRTFDEYACWPDGEPGSFVNVSCPWYLPWASSVPQGHVYRFCTAEGLWLQKDNSSLPWRDLSECEESKRGERSSPEEQLLFLY | soluble
7 | SNAGQLCCLREDGERCGRAAGNASFSKRIQKSISQKKVKIELDKSARHLYICDYHKNLIQSVRNRRKRKGS | soluble
8 | MGSDKIHHHHHHMKIAFDAKRITHNATGLGNYSRFVVNSLSASFPEHTYQLYTPGKGKEALRKRIEERPSVSFHYPEGRFDKLFPSLWRTSGLTATLRKEHVDLFHGLSNEIPMNLKQNGIPAVVTIHDLIFLRYPQLYKPIDRSIYTYKFKQACLRSDKIIAISRQTMRDIRDFFHIPESKIEVVYQGCDPIFGQAVQEDVKSSVREKYQINGPYILYVGSIEERKNLLLLVKALKKLKEDISVIAIGKHTPYTDTVETYIRENNLSGRVHILTHIPFNELAAFYQMATLFVYPSFFEGFGIPILEAQLAGIPVIAATGSCLEEAGGPSALYTDPRNEQELRGLIESVLNEPKLAESMRSGGRENIRRFMPDVLAAHFMRVYENISRS | not soluble
